We go through 4 substances from US20130280734A1.

The target of this assay is human GLP-1 receptor (GLP-1R) (human) (UniProt P43220). As to the kind of experiment: cell-based or functional assay. The settings on record: scale: times higher concentration than the active forms of GLP-1.
Sequence of human GLP-1 receptor (GLP-1R) (human) (P43220 24-463 limits assumed): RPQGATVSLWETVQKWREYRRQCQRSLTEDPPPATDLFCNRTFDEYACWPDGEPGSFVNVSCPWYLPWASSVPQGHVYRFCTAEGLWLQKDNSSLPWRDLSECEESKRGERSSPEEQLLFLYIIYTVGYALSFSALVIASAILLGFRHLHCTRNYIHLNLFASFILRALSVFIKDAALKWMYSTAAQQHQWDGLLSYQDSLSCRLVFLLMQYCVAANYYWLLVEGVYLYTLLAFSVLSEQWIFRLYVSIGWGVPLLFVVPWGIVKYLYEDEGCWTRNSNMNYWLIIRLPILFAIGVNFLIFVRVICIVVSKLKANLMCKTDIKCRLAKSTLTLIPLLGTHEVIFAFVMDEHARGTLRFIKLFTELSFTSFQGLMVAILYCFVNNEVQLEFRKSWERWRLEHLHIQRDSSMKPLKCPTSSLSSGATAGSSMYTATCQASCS
In turn, “GIP (gastric inhibitory peptide or glucose-dependent insulinotropic polypeptide) (from UniProt P09681 52-93)” registered a reactivity of the kit (aequorin luminescence), concentration relative to the active forms of GLP-1 above 1e+06. To “GLP-1 (9-36 amide) (from UniProt P01275 21-180) (peptide)” belongs above 1e+06; to “precursor GLP-1 (1-37) (from UniProt P01275 21-180) (peptide)”, 10000.

In the case of “GLP-2 (from UniProt P01275 146-178) (peptide)”, the reactivity of the kit (aequorin luminescence), concentration relative to the active forms of GLP-1 is above 1e+06.
